# Measured values taken from article PMC4021333.
# Substrate: NCC(=O)N[C@@H](Cc1ccccc1)C(=O)Nc1ccc([N+](=O)[O-])cc1
# Test: purified protein
# Conditions: wild type; conditions of the Km measurement not told
protein,measurement,value
DAP BII (Pseudoxanthomonas mexicana) (protein) GEGMWVPQQLPEIAGPLKKAGLKLSPQQISDLTGDPMGAVVALGGCTASFVSPNGLVVTNHHCAYGAIQLNSTAENNLIKNGFNAPTTADEVSAGPNARVFVLDEITDVTKDAKAAIAAAGDDALARTKALEAFEKKLIADCEAEAGFRCRLYSFSGGNTYRLFKNLEIKDVRLAYAPPGSVGKFGGDIDNWMWPRHTGDFAFYRAYVGKDGKPAAFSKDNVPYQPKHWLKFADQPLGAGDFVMVAGYPGSTNRYALAAEFDNTAQWTYPTIARHYKNQIAMVEAAGKQNADIQVKYAATMAGWNNTSKNYDGQLEGFKRIDAAGQKLREEAAVLGWLKGQGAKGQPALDAHAKLLDLLEQSKATRDRDLTLALFNNTAMLGSATQLYRLSIEREKPNAERESGYQERDLPAIEGGLKQLERRYVAAMDRQLQEYWLNEYIKLPADQRVAAVDAWLGGNDAAAVKRALDRLAGTKLGSTEERLKWFAADRKAFEASNDPAIQYAVAVMPTLLKLEQERKTRAGENLAARPVYLQALADYKKSQGEFVYPDANLSLRITFGNVMGYAPKDGMEYTPFTTLEGVVAKETGQDPFDSPKALLDAVAAKRYGGLEDKRIGSVPVNYLSDLDITGGNSGSPVLDAHGKLVGLAFDGNWESVSSNWVFDPKMTRMIAVDGRYLRWIMQEVYPAPQLLKEMNVGK,Km,1400 µM
